From FireProtDB (doi:10.1021/bi015547k)

B1: Steroid Delta-isomerase, P07445 (parent)
chain: MNLPTAQEVQGLMARYIELVDVGDIEAIVQMYADDATVEDPFGQPPIHGREQIAAFYRQGLGGGKVRACLTGPVRASHNGCGAMPFRVEMVWNGQPCALDVIDVMRFDEHGRIQTMQAYWSEVNLSVREPQ

Variants of: B1
Details: Pseudomonas putida; pH 7; 25 °C; Urea; CD; potassium phosphate 20 mM; reversible: yes; structure 1OH0; whole UniProt chain shown

With Y57S the “ddG of mutation (higher = less stable)” value was 9.5 kcal/mol, the denaturant m value was 3.43 kcal/mol/M and the “denaturant midpoint (higher = more stable)” value (“denaturant midpoint” for short) was 2.41 M. It also gave an unfolding free energy of 14.8 kcal/mol.

For Y32S, the denaturant m value was 2.55 kcal/mol/M, the “denaturant midpoint” value was 1.56 M and the unfolding free energy was 10.6 kcal/mol.

For Y16S, the denaturant m value was 2.93 kcal/mol/M, the “denaturant midpoint” value was 1.99 M and the unfolding free energy was 12.4 kcal/mol.
